{
  "source": "patent US20230250154A1",
  "about": "(CYTONICS, published 2023)",
  "binders": {"B1": {"name": "Variant A2M, bait region SEQ ID NO 111 (other)", "chain": "SVSGKPQYMVLVPSLLHTETTEKGCVLLSYLNETVTVSASLESVRGNRSLFTDLEAENDVLHCVAFAVPKSSSNEEVMFLTVQVKGPTQEFKKRTTVMVKNEDSLVFVQTDKSIYKPGQTVKFRVVSMDENFHPLNELIPLVYIQDPKGNRIAQWQSFQLEGGLKQFSFPLSSEPFQGSYKVVVQKKSGGRTEHPFTVEEFVLPKFEVQVTVPKIITILEEEMNVSVCGLYTYGKPVPGHVTVSICRKYSDASDCHGEDSQAFCEKFSGQLNSHGCFYQQVKTKVFQLKRKEYEMKLHTEAQIQEEGTVVELTGRQSSEITRTITKLSFVKVDSHFRQGIPFFGQVRLVDGKGVPIPNKVIFIRGNEANYYSNATTDEHGLVQFSINTTNVMGTSLTVRVNYKDRSPCYGYQWVSEEHEEAHHTAYLVFSPSKSFVHLEPMSHELPCGHTQTVQAHYILNGGTLLGLKKLSFYYLIMAKGGIVRTGTHGLLVKQEDMKGHFSISIPVKSDIAPVARLLIYAVLPTGDVIGDSAKYDVENCLANKVDLSFSPSQSLPASHAHLRVTAAPQSVCALRAVDQSVLLMKPDAELSASSVYNLLPEKDLTGFPGPLNDQDDEDCINRHNVYINGITYTPVSSTNEKDMYSFLEDMGLKAFTNSKIRKPKMCPQLEARGLEGGGGGSLLGGYPGSSRGGFKEGVEGGPAGAARGKLRKYFPETWIWDLVVVNSAGVAEVGVTVPDTITEWKAGAFCLSEDAGLGISSTASLRAFQPFFVELTMPYSVIRGEAFTLKATVLNYLPKCIRVSVQLEASPAFLAVPVEKEQAPHCICANGRQTVSWAVTPKSLGNVNFTVSAEALESQELCGTEVPSVPEHGRKDTVIKPLLVEPEGLEKETTFNSLLCPSGGEVSEELSLKLPPNVVEESARASVSVLGDILGSAMQNTQNLLQMPYGCGEQNMVLFAPNIYVLDYLNETQQLTPEIKSKAIGYLNTGYQRQLNYKHYDGSYSTFGERYGRNQGNTWLTAFVLKTFAQARAYIFIDEAHITQALIWLSQRQKDNGCFRSSGSLLNNAIKGGVEDEVTLSAYITIALLEIPLTVTHPVVRNALFCLESAWKTAQEGDHGSHVYTKALLAYAFALAGNQDKRKEVLKSLNEEAVKKDNSVHWERPQKPKAPVGHFYEPQAPSAEVEMTSYVLLAYLTAQPAPTSEDLTSATNIVKWITKQQNAQGGFSSTQDTVVALHALSKYGAATFTRTGKAAQVTIQSSGTFSSKFQVDNNNRLLLQQVSLPELPGEYSMKVTGEGCVYLQTSLKYNILPEKEEFPFALGVQTLPQTCDEPKAHTSFQISLSVSYTGSRSASNMAIVDVKMVSGFIPLKPTVKMLERSNHVSRTEVSSNHVLIYLDKVSNQTLSLFFTVLQDVPVRDLKPAIVKVYDYYETDEFAIAEYNAPCSKDLGNADYKDDDDKGASHHHHHH"}, "B2": {"name": "Variant A2M, bait region SEQ ID NO 112 (other)", "chain": "SVSGKPQYMVLVPSLLHTETTEKGCVLLSYLNETVTVSASLESVRGNRSLFTDLEAENDVLHCVAFAVPKSSSNEEVMFLTVQVKGPTQEFKKRTTVMVKNEDSLVFVQTDKSIYKPGQTVKFRVVSMDENFHPLNELIPLVYIQDPKGNRIAQWQSFQLEGGLKQFSFPLSSEPFQGSYKVVVQKKSGGRTEHPFTVEEFVLPKFEVQVTVPKIITILEEEMNVSVCGLYTYGKPVPGHVTVSICRKYSDASDCHGEDSQAFCEKFSGQLNSHGCFYQQVKTKVFQLKRKEYEMKLHTEAQIQEEGTVVELTGRQSSEITRTITKLSFVKVDSHFRQGIPFFGQVRLVDGKGVPIPNKVIFIRGNEANYYSNATTDEHGLVQFSINTTNVMGTSLTVRVNYKDRSPCYGYQWVSEEHEEAHHTAYLVFSPSKSFVHLEPMSHELPCGHTQTVQAHYILNGGTLLGLKKLSFYYLIMAKGGIVRTGTHGLLVKQEDMKGHFSISIPVKSDIAPVARLLIYAVLPTGDVIGDSAKYDVENCLANKVDLSFSPSQSLPASHAHLRVTAAPQSVCALRAVDQSVLLMKPDAELSASSVYNLLPEKDLTGFPGPLNDQDDEDCINRHNVYINGITYTPVSSTNEKDMYSFLEDMGLKAFTNSKIRKPKMCPQLEPGLAPGGEEGVEEGGPEEGVEEGGFKEGVEGEPESSGKLRKYFPETWIWDLVVVNSAGVAEVGVTVPDTITEWKAGAFCLSEDAGLGISSTASLRAFQPFFVELTMPYSVIRGEAFTLKATVLNYLPKCIRVSVQLEASPAFLAVPVEKEQAPHCICANGRQTVSWAVTPKSLGNVNFTVSAEALESQELCGTEVPSVPEHGRKDTVIKPLLVEPEGLEKETTFNSLLCPSGGEVSEELSLKLPPNVVEESARASVSVLGDILGSAMQNTQNLLQMPYGCGEQNMVLFAPNIYVLDYLNETQQLTPEIKSKAIGYLNTGYQRQLNYKHYDGSYSTFGERYGRNQGNTWLTAFVLKTFAQARAYIFIDEAHITQALIWLSQRQKDNGCFRSSGSLLNNAIKGGVEDEVTLSAYITIALLEIPLTVTHPVVRNALFCLESAWKTAQEGDHGSHVYTKALLAYAFALAGNQDKRKEVLKSLNEEAVKKDNSVHWERPQKPKAPVGHFYEPQAPSAEVEMTSYVLLAYLTAQPAPTSEDLTSATNIVKWITKQQNAQGGFSSTQDTVVALHALSKYGAATFTRTGKAAQVTIQSSGTFSSKFQVDNNNRLLLQQVSLPELPGEYSMKVTGEGCVYLQTSLKYNILPEKEEFPFALGVQTLPQTCDEPKAHTSFQISLSVSYTGSRSASNMAIVDVKMVSGFIPLKPTVKMLERSNHVSRTEVSSNHVLIYLDKVSNQTLSLFFTVLQDVPVRDLKPAIVKVYDYYETDEFAIAEYNAPCSKDLGNADYKDDDDKGASHHHHHH"}, "B3": {"name": "Variant A2M, bait region SEQ ID NO 113 (other)", "chain": "SVSGKPQYMVLVPSLLHTETTEKGCVLLSYLNETVTVSASLESVRGNRSLFTDLEAENDVLHCVAFAVPKSSSNEEVMFLTVQVKGPTQEFKKRTTVMVKNEDSLVFVQTDKSIYKPGQTVKFRVVSMDENFHPLNELIPLVYIQDPKGNRIAQWQSFQLEGGLKQFSFPLSSEPFQGSYKVVVQKKSGGRTEHPFTVEEFVLPKFEVQVTVPKIITILEEEMNVSVCGLYTYGKPVPGHVTVSICRKYSDASDCHGEDSQAFCEKFSGQLNSHGCFYQQVKTKVFQLKRKEYEMKLHTEAQIQEEGTVVELTGRQSSEITRTITKLSFVKVDSHFRQGIPFFGQVRLVDGKGVPIPNKVIFIRGNEANYYSNATTDEHGLVQFSINTTNVMGTSLTVRVNYKDRSPCYGYQWVSEEHEEAHHTAYLVFSPSKSFVHLEPMSHELPCGHTQTVQAHYILNGGTLLGLKKLSFYYLIMAKGGIVRTGTHGLLVKQEDMKGHFSISIPVKSDIAPVARLLIYAVLPTGDVIGDSAKYDVENCLANKVDLSFSPSQSLPASHAHLRVTAAPQSVCALRAVDQSVLLMKPDAELSASSVYNLLPEKDLTGFPGPLNDQDDEDCINRHNVYINGITYTPVSSTNEKDMYSFLEDMGLKAFTNSKIRKPKMCPQLEEGEARGSTAQEAGEGPKEEEGLGSSELEGRGSPVSQELGQRKLRKYFPETWIWDLVVVNSAGVAEVGVTVPDTITEWKAGAFCLSEDAGLGISSTASLRAFQPFFVELTMPYSVIRGEAFTLKATVLNYLPKCIRVSVQLEASPAFLAVPVEKEQAPHCICANGRQTVSWAVTPKSLGNVNFTVSAEALESQELCGTEVPSVPEHGRKDTVIKPLLVEPEGLEKETTFNSLLCPSGGEVSEELSLKLPPNVVEESARASVSVLGDILGSAMQNTQNLLQMPYGCGEQNMVLFAPNIYVLDYLNETQQLTPEIKSKAIGYLNTGYQRQLNYKHYDGSYSTFGERYGRNQGNTWLTAFVLKTFAQARAYIFIDEAHITQALIWLSQRQKDNGCFRSSGSLLNNAIKGGVEDEVTLSAYITIALLEIPLTVTHPVVRNALFCLESAWKTAQEGDHGSHVYTKALLAYAFALAGNQDKRKEVLKSLNEEAVKKDNSVHWERPQKPKAPVGHFYEPQAPSAEVEMTSYVLLAYLTAQPAPTSEDLTSATNIVKWITKQQNAQGGFSSTQDTVVALHALSKYGAATFTRTGKAAQVTIQSSGTFSSKFQVDNNNRLLLQQVSLPELPGEYSMKVTGEGCVYLQTSLKYNILPEKEEFPFALGVQTLPQTCDEPKAHTSFQISLSVSYTGSRSASNMAIVDVKMVSGFIPLKPTVKMLERSNHVSRTEVSSNHVLIYLDKVSNQTLSLFFTVLQDVPVRDLKPAIVKVYDYYETDEFAIAEYNAPCSKDLGNADYKDDDDKGASHHHHHH"}},
  "data": [
    {"molecular_target": "T1, ADAMTS4 (human, UniProt O75173 213-685, limits assumed)", "T1 sequence (looked up)": "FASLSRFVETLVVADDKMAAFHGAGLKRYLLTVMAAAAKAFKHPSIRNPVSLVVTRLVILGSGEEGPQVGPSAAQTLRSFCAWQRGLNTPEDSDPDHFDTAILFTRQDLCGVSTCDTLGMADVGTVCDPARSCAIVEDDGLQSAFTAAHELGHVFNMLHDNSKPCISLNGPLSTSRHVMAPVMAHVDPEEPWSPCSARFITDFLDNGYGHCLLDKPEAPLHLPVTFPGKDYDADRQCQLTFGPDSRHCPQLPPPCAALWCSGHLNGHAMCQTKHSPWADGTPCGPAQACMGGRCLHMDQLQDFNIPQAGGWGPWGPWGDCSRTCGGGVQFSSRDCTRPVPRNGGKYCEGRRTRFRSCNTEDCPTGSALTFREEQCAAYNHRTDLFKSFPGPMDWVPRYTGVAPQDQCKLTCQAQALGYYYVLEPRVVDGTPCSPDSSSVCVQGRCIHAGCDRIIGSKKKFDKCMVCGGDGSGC", "assay": "cell-based or functional assay", "values": [
      {"binder": "B1", "Protease Inhibition (% of WT)": "105 % of WT"},
      {"binder": "B2", "Protease Inhibition (% of WT)": "108 % of WT"},
      {"binder": "B3", "Protease Inhibition (% of WT)": "115 % of WT"}
    ]},
    {"molecular_target": "T2, ADAMTS5 (human, UniProt Q9UNA0 262-622, limits assumed)", "T2 sequence (looked up)": "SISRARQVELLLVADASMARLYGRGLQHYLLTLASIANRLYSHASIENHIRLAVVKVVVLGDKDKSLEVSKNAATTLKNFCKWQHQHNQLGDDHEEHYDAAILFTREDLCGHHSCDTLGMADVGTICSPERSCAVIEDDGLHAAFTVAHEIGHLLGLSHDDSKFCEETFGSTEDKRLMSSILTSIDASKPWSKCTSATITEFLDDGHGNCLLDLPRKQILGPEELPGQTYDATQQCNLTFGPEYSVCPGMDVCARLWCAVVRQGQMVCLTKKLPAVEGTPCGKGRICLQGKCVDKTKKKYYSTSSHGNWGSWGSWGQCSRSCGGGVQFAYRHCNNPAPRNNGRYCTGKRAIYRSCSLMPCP", "assay": "cell-based or functional assay", "values": [
      {"binder": "B1", "Protease Inhibition (% of WT)": "89 % of WT"},
      {"binder": "B2", "Protease Inhibition (% of WT)": "199 % of WT"},
      {"binder": "B3", "Protease Inhibition (% of WT)": "92 % of WT"}
    ]},
    {"molecular_target": "MMP13 (human, UniProt P45452 104-471, limits assumed)", "assay": "cell-based or functional assay", "values": [
      {"binder": "B1", "Protease Inhibition (% of WT)": "113 % of WT"},
      {"binder": "B2", "Protease Inhibition (% of WT)": "56 % of WT"},
      {"binder": "B3", "Protease Inhibition (% of WT)": "27 % of WT"}
    ]}
  ]
}
